Like-named read-outs stand apart in the source and are kept apart here.
T1: mouse CD324 (Sino Biologics) (mouse, UniProt P09803 157-709, limits assumed)
T1 construct: bought recombinant protein coated on the ELISA plate; also called murine CD324; mouse homolog
T1 sequence (looked up): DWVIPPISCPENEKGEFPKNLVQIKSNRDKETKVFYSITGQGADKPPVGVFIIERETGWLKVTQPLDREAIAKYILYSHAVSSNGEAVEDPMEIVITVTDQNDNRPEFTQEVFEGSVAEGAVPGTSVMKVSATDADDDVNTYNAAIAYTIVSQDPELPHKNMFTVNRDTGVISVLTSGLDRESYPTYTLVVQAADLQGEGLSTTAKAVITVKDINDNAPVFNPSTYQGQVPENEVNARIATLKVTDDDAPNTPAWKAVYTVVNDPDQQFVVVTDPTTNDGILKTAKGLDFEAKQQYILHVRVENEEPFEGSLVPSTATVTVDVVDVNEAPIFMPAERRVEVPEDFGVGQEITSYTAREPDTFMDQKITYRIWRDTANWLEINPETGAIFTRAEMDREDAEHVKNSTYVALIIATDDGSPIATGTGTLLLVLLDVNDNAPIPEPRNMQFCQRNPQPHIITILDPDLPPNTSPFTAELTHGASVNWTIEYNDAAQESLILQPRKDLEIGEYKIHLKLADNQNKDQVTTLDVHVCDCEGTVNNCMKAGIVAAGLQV

T2: human CD324 on cells (MCF7, BR22, NTX tumor cells, 293-hCD324) (human, UniProt P12830 155-882)
T2 sequence: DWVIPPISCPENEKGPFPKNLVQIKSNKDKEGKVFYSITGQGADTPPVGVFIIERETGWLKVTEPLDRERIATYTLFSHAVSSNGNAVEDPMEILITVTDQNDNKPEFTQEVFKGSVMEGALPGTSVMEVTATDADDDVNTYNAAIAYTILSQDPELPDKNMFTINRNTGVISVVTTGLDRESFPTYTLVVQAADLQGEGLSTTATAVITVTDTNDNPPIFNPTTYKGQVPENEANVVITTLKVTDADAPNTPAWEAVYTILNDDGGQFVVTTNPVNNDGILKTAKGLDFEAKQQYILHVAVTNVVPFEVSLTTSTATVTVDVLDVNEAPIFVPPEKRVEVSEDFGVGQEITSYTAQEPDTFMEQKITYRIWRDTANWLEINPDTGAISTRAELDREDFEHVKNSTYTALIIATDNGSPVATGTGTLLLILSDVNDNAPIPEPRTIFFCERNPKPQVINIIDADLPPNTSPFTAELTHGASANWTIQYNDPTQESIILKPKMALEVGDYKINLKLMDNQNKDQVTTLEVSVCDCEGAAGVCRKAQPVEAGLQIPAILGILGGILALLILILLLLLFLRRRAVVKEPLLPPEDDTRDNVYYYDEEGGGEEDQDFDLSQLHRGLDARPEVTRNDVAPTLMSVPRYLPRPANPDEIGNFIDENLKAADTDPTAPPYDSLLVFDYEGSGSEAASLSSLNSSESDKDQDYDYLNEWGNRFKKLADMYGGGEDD

T3: human CD324-His recombinant protein (Sino Biological, Inc.) (human, UniProt P12830 155-709)
T3 construct: bought soluble protein; The antigen of the Biacore experiment is only called human CD324 antigen; also called hCD324-His; human CD324 antigen; not shown: His tag
T3 sequence: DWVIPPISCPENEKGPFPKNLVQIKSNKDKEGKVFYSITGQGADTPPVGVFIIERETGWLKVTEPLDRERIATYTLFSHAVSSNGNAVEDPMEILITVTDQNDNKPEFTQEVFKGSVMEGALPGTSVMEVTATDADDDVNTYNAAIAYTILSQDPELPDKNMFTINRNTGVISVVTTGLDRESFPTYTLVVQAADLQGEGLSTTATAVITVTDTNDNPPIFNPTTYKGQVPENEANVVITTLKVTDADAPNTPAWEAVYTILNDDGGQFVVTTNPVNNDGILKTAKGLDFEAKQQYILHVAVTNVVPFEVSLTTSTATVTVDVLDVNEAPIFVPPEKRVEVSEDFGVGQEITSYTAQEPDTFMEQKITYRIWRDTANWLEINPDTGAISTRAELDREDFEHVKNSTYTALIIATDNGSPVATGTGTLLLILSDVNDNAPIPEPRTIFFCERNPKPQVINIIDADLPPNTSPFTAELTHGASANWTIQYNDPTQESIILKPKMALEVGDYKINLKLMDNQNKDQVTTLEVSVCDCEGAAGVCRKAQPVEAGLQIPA


Columns and labels:
[1] = target: T1, mouse CD324 (Sino Biologics); assay: direct ELISA on plate-coated mouse CD324 (Example 7, paragraph 375; paragraph 370 names ForteBio)
Method: To test cross-reactivity a high protein binding 96-well assay plate was coated with 0.5 μg/ml of a mouse CD324 purchased from Sino Biologics. The protein coating of the plate occurred in 100 μl volume per well using a 50 mM Sodium Carbonate buffer (pH9.6) during a 16 hour incubation at 4° C. After washing the coated plate in PBS buffer containing 0.05% Tween20 (PBST) the plate was then clocked washed with PBST and 100 μL/well PBSA containing 10% spent hybridoma supernatant or 1 μg/ml purified monoclonal antibody (as positive control) was added to the plate for the duration of 1 hour at ambient temperature. After washing the plate with PBST, 100 μL per well of PBSA containing a 1:10,000 dilution of goat anti-mouse IgG polyclonal antibody, specific for the Fc portion of Mouse IgG and conjugated to horseradish peroxidase (Jackson Immuno Research), was added to the plate for 30 minutes at ambient temperature. After washing the plate extensively with PBST, 100 μL per well TMB substrate (Thermo Fisher) was added to the wells for 15 minutes. The enzymatic reaction was stopped by adding 100 μL/well 2M sulfuric acid. The absorbance of this colorimetric assay was measured at 450 nm using a Victor plate reader (Perkin Elmer). In this assay a signal above background was indicative of cross-reactivity.

[2] = target: T2, human CD324 on cells (MCF7, BR22, NTX …); assay: cell-based or functional assay
[3] = target: T3, human CD324-His recombinant protein …; assay: SPR (Biacore), concentration series 25, 12.5 and 6.25 nM, 1:1 Langmuir binding model; murine parent antibody
[4] = target: T2, human CD324 on cells (MCF7, BR22, NTX …); assay: cell-based or functional assay; remark: listed apart in the source
[5] = target: T2, human CD324 on cells (MCF7, BR22, NTX …); assay: cell-based or functional assay; remark: listed apart in the source
[6] = target: T2, human CD324 on cells (MCF7, BR22, NTX …); assay: cell-based or functional assay; remark: listed apart in the source
[7] = target: T2, human CD324 on cells (MCF7, BR22, NTX …); assay: cell-based or functional assay; remark: listed apart in the source
[8] = target: T2, human CD324 on cells (MCF7, BR22, NTX …); assay: cell-based or functional assay; remark: listed apart in the source

Row | Binder | binding result [1] | EC50 (MCF7, Fab-saporin killing) [2] | Kd [3] | Percent live cells remaining at 10pM (MCF7, Fab-saporin) [4] | EC50 (MCF7, Fab-saporin killing) [5] | EC50 of killing of MCF7 cells, Fab-saporin assay [6] | Normalized RLU at 10pM (MCF7, Fab-saporin) [7] | Normalized RLU at 100pM (MCF7, Fab-saporin) [7] | EC50 (read off the curve) [8]
1 | SC10.17 (antibody, V domains shown, murine monoclonal antibody from hybridoma; also called murine SC10.17; mAb SC10.17) VH: DVQLVESGGGLVQPGGSRKLSCAASGFTFSSYGMHWVRQAPETGLEWVAYITTRSSTIYYAATVKGRFTISRDNARNTLFLQMTSLRSEDTAMYYCTREPLTGYYAMDYWGQGTSVTVSS VL: DVLMTQTPLSLPVSLGDQASISCRSSQSIVHSDGNTYLEWYLRKPGQSPRLLIYKVSNRFSGVPDRFSGSGSGTDFTLKISRVEAEDLGVYYCFQGSHAPWTFGGGTKLEIK | no binding | 1.22 pM | 2000 pM | 32% | 0.13 pM | 1.2 pM |  |  | 
2 | SC10.36 (antibody, V domains shown) VH: QVQLQQSGNELVRPGSAVKISCKASGYAFSSYWMNWVKQRPGQGLEWIGQIYPGDDDSNYNGKFKGKATLTADKSSSSAYMHLSSLTSEDSAVYFCARGFATPTMDYWGQGTSVTVSS VL: not shown |  |  |  |  |  |  | 40.7 | 21.2 | 
3 | SC10.178 (antibody, V domains shown) VH: QILLVQSGPELKKPGETVKISCKANYTFTDYGMHWVKQAPGKGLKWMGWINPKTGVASYADDFKGRFAFSLETSASTAYLQINNLENEDTSIYFCARFFDYWGQGTTLTVSS VL: DIVLTQSPLSLLVSLGDQASISCRSSQSLVHSNGNTYLHWYLQKPGQSPNLLIFKVSNRFSGVPDRFSGSGSGTDFTLRISRVEAEDLGVYFCSQTTHVWTFGGGTKLEIK |  |  |  | 68% | 3.1 pM |  | 68 | 38.1 | 
4 | SC10.75 (antibody, V domains shown, murine mAb; variable regions only) VH: QVQLKESGPGLVAPSQSLSITCTVTGFSLSRYSVHWIRQPPGKGLEWLGMIWGGGSTDYNSALKSRLSINKDNSKSQVFLKMNSLQTVDTAMYYCARTQFYYGHDGGYAMDYWGQGTSVTVSS VL: DIVMSQSPSSLAVSVGEKVTMSCKSSQSLLYSNNQKNYLAWYQQKPGQSPKLLIYWASSRESGVPERFTGSGSGTDFTLTISSVKAEDLAVYYCQQYYSSPYTFGGGTKLK | no binding |  |  | 101% |  |  | 101 | 98.8 | 
5 | SC10.35 (antibody, V domains shown) VH: SDVQLQESGPGLVKPSQSLSLTCTVTDYSITSDYAWNWIRQFPGNNLEWMGNIGYSGDTSYNPSLKSRISITRDTSKNQFFLQLNSVTTEDSATYYCARSSLGPFDYWGQGTALTVSS VL: QIVLTQSPAIMSASPGERVTLTCSASSSVSSSFLYWYQQKSGSSPKLWIYSTSTLASGVPARFSGSGSGTSYSLTISSMEAEDAASYFCHQWSSYPWTFGGGTKLEIK |  |  |  |  | 0.71 pM |  | 37.2 | 19.4 | ~0.6 pM
6 | SC10.168 (antibody, V domains shown) VH: SDVQLQESGPGLVKPSQSLSVTCTVTDYSLTSGYYWNWIRQFPGNKLEWMAYIHSSGSTHYNPSLKSRISVTRDTSKNQFFLQLNSVTTEDTATYYCARDGAYYSSWFPYWGQGTLVTVSA VL: DIVMTQSHKLMSASVGDRVSITCKASQDVGTAVAWYQQKPGRSPKLLIYWASNRHTGVPDRFTGSGSGTDFTLTISNVQSEDLADYFCQQFGSYPYTFGGGTKLEIKR |  |  |  |  |  |  | 64.8 | 34 | 
7 | SC10.163 (antibody, V domains shown) VH: EVQLQQSGPELVKPGDSVKMSCKASGNTVTNYYMDWVKQSHGKSLEWIGYIYANNGGTSYNQKFKGKATLTVDKSSSTAYMEIHSLTSEDSAVYYCAIYYRYEFAYWGQGTLVTVSA VL: DIVMTQAAFSNPVTLGTSASISCRSSKSLLHSNGITYLYWYLQKPGQSPQLLIYQMSNLASGVPDRFSNSGSGTDFTLRISRVEAEDVGVYYCAQNLELPWTFGGGTKLEIK |  |  |  |  |  |  | 91.5 | 90.3 | 
8 | SC10.38 (antibody, V domains shown) VH: QVQLQQSGAELMKTGASVKISCKATGYTFSSYWIEWVKQRPGHGLEWIGEILPGSGKTNYNENFKGKATFTADTSSNTAYMQLSSLTSEDSVVYYCARRGAYYGNFDYWGQGTTLTVSS VL: DIQMNQSPSSLSASLGDTITITCHVSQNINVWLTWYQQKPGNIPKLLLYKASNLQTGVPSRFSGSGSGTGFTLTISSLQPEDIATYYCQQGQSYPFTFGSGTK |  |  |  |  |  |  | 102 | 106 | 
